PMC9237525, “Solution Structure of Tubuliform Spidroin N-Terminal Domain and Implications for pH Dependent Dimerization” (Frontiers in Molecular Biosciences, 2022)

Experiments:
[1] = molecular target: Argiope argentata TuSp NT E37Q E82Q (Argiope argentata); test: SEC; Superdex 75 Increase 10/300 GL, 50 µl at 3 mg/ml, 20 mM NaOAc, 20 mM NaCl, pH 5.5
[2] = molecular target: Argiope argentata TuSp NT E37Q E82Q E85Q (Argiope argentata); test: as above
[3] = molecular target: Argiope argentata TuSp NT E37Q E82Q E85Q D130N (Argiope argentata); test: as above
[4] = molecular target: the molecule itself; test: 15N NMR relaxation (rotational correlation time); pH 5.5; T1 and T2 of backbone amides, 800 MHz; molecular weight estimated from the correlation time

Argiope argentata TuSp NT E37Q E82Q (domain or fragment)
stoichiometry N [1]: 2

Argiope argentata TuSp NT E37Q E82Q E85Q (domain or fragment)
stoichiometry N [2]: 2

Argiope argentata TuSp NT E37Q E82Q E85Q D130N (domain or fragment)
stoichiometry N [3]: 2

B1: Argiope argentata tubuliform spidroin (TuSp 1) N-terminal domain, wild type (domain or fragment)
chain: AVTAVPSVFSSPNLASGFLQCLTFGIGNSPAFPTQEQQDLDAIAQVILNAVSTNTGATASARAQALSTALASSLTDLLIAESAESNYNNQLSELTGILSNCFIQTTGSDNPAFVSRIQSLISVLSQNTDVNIISTA
notes: Tubuliform spidroin 1 (TuSp 1) N-terminal domain, Argiope argentata; 136 residues (count printed for the A70E variant); Expressed from pET-32a-HisTrxHisNT; Intramolecular disulfide C22-C102; 15N- or 13C,15N-labelled for NMR; Calculated mass 14.1 kDa (monomer); also called TuSp NT; wt TuSp NT; not shown: His-Trx, N-terminal, cleaved
stoichiometry N [4]: 2
